The source of these data is US20080026077A1, “METHODS AND COMPOSITIONS OF GENE DELIVERY AGENTS FOR SYSTEMIC AND LOCAL THERAPY” (priority 2002, published 2008).

Where two headings read alike, the source gives them in different places. Marks after values point to notes of the source that are not given here. No end group written: not given here.

The nature of series [1]: In situ intestinal absorption, single pass perfusion of radiolabeled BAC/pDNA. It counts as in vivo. To be noted: complexes with membrane translocating BAC. On the procedure:
In order to examine the capability of the BAC/pDNA complex to bind and/or be absorbed onto the intestinal lumen cells the absorption of nicked-radiolabeled pDNA in a single pass perfusion experiment is tested. Using isolated ileal or jejunal segments radio-labeled BAC/pDNA mixtures mixture is mixed with HEPES buffer, pH 7.4, and perused at jejunal (filled symbols) and ileal (open symbols) sites. After 30 min of steady state, sample fractions are collected and the absorbed fraction of BAC/pDNA calculated. BAC/pDNA mixtures used are pDNA:BAC 1:27,000 neutrally charged and 1:54,000 molar ratios positively charged. Uncomplexed pDNA is used as a control.

Series [2] in a line: Oral gavage of zanamivir with various BAC analogs, plasma zanamivir. The class given is in vivo, Male Swiss CFW mice. To be noted: fasted mice, 1 mg/kg zanamivir, BAC 1x equal molar; for Increase in concentration above H2O control / Mean Plasma Zanamivir Concentration: 30 min. The text has this:
Plasma zanamivir concentrations are quantified by LC/MS/MS analysis.

The nature of series [3]: Critical micellar concentration (CMC) of BACs, dye solubilization method. The class given is physicochemical. To be noted: DPH dye solubilization, 50 mM Tris buffer pH 8.0. The protocol:
Briefly, serial dilutions of a 7 mg/ml solution of the BACs are made in 50 mM Tris buffer pH 8.0. 10 ul of the dye 1,6-diphenyl-1,3,5-hexatriene (DPH, Sigma) (0.4 mM in methanol) is added to each ml. After overnight RT incubation in the dark, the absorbance of the samples at 356 nm is recorded. Linear regression of the data points above baseline was performed and the calculated CMC derived from the x intercept. The results for thirteen different BACs are shown in Table 1 based on a chendoxycholamide of the detailed motifs.

Series [4] is described as follows: Octanol/buffer partitioning of carboxyfluorescein mixed with BAC analogs. To be noted: 4 nmoles carboxyfluorescein, 281 nmoles BAC. It counts as physicochemical. The protocol: Partitioning of the fluorescent compound carboxyfluorescein by a BAC of Formula I into the octanol phase of an octanol/buffer portioning system for a series of BAC compounds is determined following standard methods. […] The mixture is vortexed for 5 mins and the incubated at room temperature for 3 hours. The solution is centrifuged to facilitate complete phase separation and a 100 μl of aqueous material is withdrawn for fluorescent measurement.

For series [5] the following is noted: tibia, 24 hours after oral dosing, 4 mg/kg alendronate, with or without 4× molar BAC-A6. The protocol:
Male Swiss CFW mice 25-28 g are fed or fasted overnight and subsequently lightly anesthetized with isoflurane by inhalation prior to oral dosing. Mice are administered 0.2 ml of the dosing solution. 24 hrs after dosing the mice are sacrificed and the tibia collected. […] The amount of 14CO2 is quantified by scintillation counting.

Take “membrane translocating BAC: 12-residue membrane translocating peptide (SEQ ID NO: 23) coupled to bile acid by an ether linkage (AAVLLPVLLAAP; also: coupled to bile acid by an ether linkage, site not given here)”: the “in situ intestinal absorption compared with FIG. 7” value in series [1] is “comparable results to those depicted in FIG. 7”.
For “N-E9 motif of chenoxycholamide (RAWARAWAR; also: chenodeoxycholamide bile acid conjugate, site not given here)”, in series [2], the “Increase in concentration above H2O control” value (“Increase” below) was found to be 22 fold and the “Mean Plasma Zanamivir Concentration” value came to 1227 ng/mL. Besides, the “Calculated CMC concentration” value in series [3] was 1.2 mM.
Take “D9: chendoxycholamide bile acid conjugate, peptide Z = -RARARARAR (not fully specified (N-terminus); printed as -RARARARAR; also: chenodeoxycholamide bile acid conjugate, attachment not placed)”: the “Calculated CMC concentration” value in series [3] is on record as 1.7 mM.
`CC(=O)N[C@H]1[C@H]([C@H](O)[C@H](O)CO)OC(C(=O)O)=C[C@@H]1N=C(N)N` [Zanamivir, zanamivir, reference compound]: in series [2], the “Increase” value was determined as 1 fold. The molecule further gave a concentration at 30 min in series [2] (male, Swiss CFW, mouse, plasma) of 55 ng/mL.
“B7: chendoxycholamide bile acid conjugate, peptide Z = -RRRARRR (not fully specified (N-terminus); printed as -RRRARRR; also: chenodeoxycholamide bile acid conjugate, attachment not placed)”: in series [2], the “Increase” value was 4 fold and the “Mean Plasma Zanamivir Concentration” value is 228 ng/mL. In addition, in series [3], the “Calculated CMC concentration” value is reported as >5.0* mM.
Consider Carboxyfluorescein, for which the “Fluorescence Units” value in series [4] (aqueous phase after octanol/buffer partitioning) stood at 78614. Besides, the LogD – broadly, the decadic logarithm of the distribution of all forms, ionised or not, between an organic phase and buffer at a given pH – in series [4] (carboxyfluorescein, octanol/buffer) is −1.638.
Consider `NCCCC(O)(P(=O)(O)O)P(=O)(O)O` [Alendronate, alendronate], for which the figures for the “Bone deposition of 14C-alendronate, mean dpm/mg bone” value in series [5] (Fasted mice) and in series [5] (Fed mice) were 3.92 dpm/mg and 9.51 dpm/mg, respectively.
For the molecule “C8: chendoxycholamide bile acid conjugate, peptide Z = -RRARRARR (not fully specified (N-terminus); printed as -RRARRARR; also: chenodeoxycholamide bile acid conjugate, attachment not placed)”, in series [2], the “Increase” value was 4 fold and the “Mean Plasma Zanamivir Concentration” value is 223 ng/mL. The “Calculated CMC concentration” value in series [3] was 4.4 mM.
